The source of these data is patent US20240141038A1 (SHANGHAI QILU PHARMACEUTICAL RESEARCH AND DEVELOPMENT CENTRE, published 2024).

Assay [1] concerns the target T1, Cynomolgus monkey NKp46 for immunization, screening, and testing (Kactus, NKP-CM146) (cynomolgus monkey, UniProt Q95JB9 22-254).
T1 construct: Bought protein; also called monkey NKp46 antigen protein; cynomolgus monkey NKp46 antigen
The assay is described as follows: SPR (Biacore 8K), antibody captured on anti-human Fc, NKp46 as analyte, 1:1 fit. The method, then:
Cynomolgus monkey NKp46 was diluted in two-fold to a serial concentration (400 nM-3.125 nM), combined for 90 s at a flow rate of 50 μL/min and dissociated for 500 s.
(§1) At the end of each round of experiments, 3 M MgCl₂ solution was used to rinse at a flow rate of 30 μL/min for 30 s, and the captured antibody was removed along with the antigen to complete the regeneration of the chip. The raw data were analyzed using Biacore Insight Evaluation Software (version 3.0.12.15655) software and (1:1) Langmuir model was fit to the data. Compared with the anti-NKp46 humanized antibody and the corresponding chimeric antibody, the affinity to the human NKp46 antigen protein is mostly maintained.
A general note: Surface plasmon resonance follows binding to a sensor surface in real time, without labels.

Assay [2] addresses T2, human NKp46 (full length, on cells) (human, UniProt O76036 22-304). As to the kind of experiment: cell-based or functional assay.
Assay [3] has as its target T3, cynomolgus monkey NKp46 (full length, on cells) (cynomolgus monkey, UniProt Q95JB9 22-306).
T3 construct: also called cynomolgus monkey NKp46-CHOK1; cynomolgus NKp46-CHOK1
As to the kind of experiment: flow cytometry on cynomolgus monkey NKp46-CHOK1 cells. Here is the method:
(§2) The stable human NKp46-CHOK1 and cynomolgus monkey NKp46-CHOK1 cell lines obtained in Example 2 were cultured, the cells were digested with 0.25% pancreatic enzyme EDTA for about 5 minutes, and the digestion was terminated with the complete medium. After centrifugation at 1,500 rpm for 5 minutes, the supernatant was discarded, the precipitated cells were resuspended with PBS containing 1% BSA and counted. The cell density was adjusted to 1E6/mL and seeded in a corning-3799 96-well culture plate at 100 μL/well. Aftering centrifuging at 1,500 rpm for 5 minutes, the supernatant was discarded and the precipitate was set aside at 4° C. The antibody solutions were prepared with PBS containing 1% BSA, wherein the antibody solution has an initial concentration was 100 nM, then diluted in 10-fold to obtain 7 gradients: 10⁻⁴ nM, 10⁻³ nM, 10⁻² nM, 10⁻¹ nM, […], and 10² nM. The prepared antibody solutions were used to resuspend the cells, 100 μL/well. The resuspended cell culture plates were incubated in a 4° C. freezer for 1 h. After centrifugation at 1500 rpm for 5 minutes, the supernatant was discarded. The precipitate was washed with 160 μL of PBS containing 1% BSA, the supernatant was discarded, and the cells were stored for later use.
(§3) The Secondary antibody (goat anti human IgG Fc PE) solution was prepared with PBS containing 1% BSA, and diluted 1:200. The cells were resuspended with the prepared secondary antibody solution, 100 μL/well, incubated in a 4° C. freezer for 0.5 h. After centrifugation at 1,500 rpm for 5 minutes, the supernatant was discarded, the precipitated cells were washed with 160 μL of PBS containing 1% BSA, the supernatant was discarded, the cells were resuspended with 100 μL of PBS containing 1% BSA, and filtered in 300-mesh gauze. The mean fluorescence intensity of antibody binding to cells was then analyzed on a flow cytometer. The FCS file was exported from the flow cytometer, the mean fluorescence intensity (hereinafter referred to as MFI) of PE channel was analyzed with Flowjo software, and the mean fluorescence intensity obtained was introduced into the Graphpad to analyze the half binding concentration (hereinafter referred to as EC₅₀) and the top mean fluorescence intensity (Top MFI) of the antibody and the cell.

Assay [4] has as its target T4, Human NKp46 antigen for immunization, screening, and testing (Kactus, NKP-HM146) (human, UniProt O76036 22-255).
T4 construct: Bought protein; also called human NKp46 antigen protein; human NKp46 protein
The assay is described as follows: SPR (Biacore 8K), antibody captured on anti-human Fc, NKp46 as analyte, 1:1 fit. The method, then:
Human NKp46 was diluted in two-fold to a serial concentration (400 nM-3.125 nM), then combined for 90 s at a flow rate of 50 μL/min, and dissociated for 500 s.
as §1

The target in assay [5] is T2, human NKp46 (full length, on cells). The assay is described as follows: flow cytometry on human NKp46-CHOK1 cells. Here is the method: as §2, §3
(In general: In flow cytometry, cells or beads pass a laser one at a time.)

T2 sequence (O76036 22-304 Q82K): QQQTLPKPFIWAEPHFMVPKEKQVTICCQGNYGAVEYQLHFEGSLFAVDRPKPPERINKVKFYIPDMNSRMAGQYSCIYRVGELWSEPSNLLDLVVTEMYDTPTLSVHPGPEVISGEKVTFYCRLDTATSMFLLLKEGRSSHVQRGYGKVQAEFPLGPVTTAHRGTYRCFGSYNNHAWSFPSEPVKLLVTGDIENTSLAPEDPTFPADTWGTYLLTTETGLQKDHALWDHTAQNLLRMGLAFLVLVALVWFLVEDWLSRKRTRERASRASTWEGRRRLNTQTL
T3 sequence (Q95JB9 22-306): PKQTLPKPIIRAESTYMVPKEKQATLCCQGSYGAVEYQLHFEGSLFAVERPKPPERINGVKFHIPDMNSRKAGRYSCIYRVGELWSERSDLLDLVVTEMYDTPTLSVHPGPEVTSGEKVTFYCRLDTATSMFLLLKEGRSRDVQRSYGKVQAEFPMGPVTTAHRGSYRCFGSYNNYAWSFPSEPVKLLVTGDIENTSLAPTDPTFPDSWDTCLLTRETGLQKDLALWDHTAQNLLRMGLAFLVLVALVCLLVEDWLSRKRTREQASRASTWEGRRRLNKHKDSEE
T4 sequence (O76036 other isoform, or with tags, fused parts or gaps limits assumed): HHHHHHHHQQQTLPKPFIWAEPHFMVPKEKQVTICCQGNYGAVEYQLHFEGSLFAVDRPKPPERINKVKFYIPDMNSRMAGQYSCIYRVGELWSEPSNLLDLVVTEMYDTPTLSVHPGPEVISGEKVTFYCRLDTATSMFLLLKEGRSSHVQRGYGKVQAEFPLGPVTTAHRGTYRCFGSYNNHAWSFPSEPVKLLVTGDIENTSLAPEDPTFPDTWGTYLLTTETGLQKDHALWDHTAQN
T1 sequence (Q95JB9 other isoform, or with tags, fused parts or gaps limits assumed): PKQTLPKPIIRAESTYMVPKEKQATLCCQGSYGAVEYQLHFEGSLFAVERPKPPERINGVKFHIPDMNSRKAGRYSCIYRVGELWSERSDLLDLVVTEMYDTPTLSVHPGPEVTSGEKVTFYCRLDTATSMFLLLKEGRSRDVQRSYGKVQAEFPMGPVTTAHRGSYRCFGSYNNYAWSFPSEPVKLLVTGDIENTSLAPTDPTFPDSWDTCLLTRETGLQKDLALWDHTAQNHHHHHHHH

B1: H2-PA27 humanized antibody (antibody, human IgG1, V domains shown)
VH: QVQLVESGGGVVQPGRSLRLSCAASGRTESWYRMGWFRQAPGKGLEVVARISGDTNIKYYAGSVKGRFTISRDNSKNTLYLQMSSLRAEDTAVYYCAADRTGATWDYWGQGTLVTVSS
notes: not shown: constant region of human IgG1
In the case of B1, in assay [1], the Kd stood at 23.4 nM, the dissociation rate constant (koff) stood at 0.0059 s⁻¹ and the kon is 252000 M⁻¹ s⁻¹. Besides, in assay [2], the “EC50 of NK cell activation (CD107a-positive NK cells, plate-coated antibody)” value (“EC50 of NK cell activation” for short) was above 20 nM and the “Top mean fluorescence intensity (Top MFI), NK cell activation (CD107a)” value (shortened to “Top mean fluorescence intensity”) came to 14.1. For the same molecule, in assay [3], the EC50 was found to be 0.069 nM and the “Top MFI” value stood at 3800. In addition, in assay [4], the Kd was 22.1 nM, the koff turned out to be 0.00216 s⁻¹ and the kon came out at 97700 M⁻¹ s⁻¹. Besides, in assay [5], the EC50 came to 0.153 nM and the “Top MFI” value amounted to 6940.

B2: H4-PA27 humanized antibody (antibody, human IgG1, V domains shown)
VH: DVQLVESGGGVVQPGRSLRLSCAASGRTESWYRMGWFRQAPGKGREVVARISGDTNIKYYAGSVKGRFTISRDNSKNTLYLQMSSLRAEDTAVYYCAADRTGATWDYWGQGTLVTVSS
notes: as for B1
Consider B2, for which, in assay [2], the “EC50 of NK cell activation” value is 10.7 nM and the “Top mean fluorescence intensity” value is 18.1. For the same molecule, in assay [3], the EC50 turned out to be 0.074 nM and the “Top MFI” value was found to be 3880. In assay [4], this molecule had a Kd of 23.7 nM, a koff of 0.00266 s⁻¹ and a kon of 112000 M⁻¹ s⁻¹. Moreover, in assay [5], the EC50 was 0.145 nM and the “Top MFI” value stood at 6650.

B3: H3-PA27 humanized antibody (antibody, human IgG1, V domains shown)
VH: QVQLVESGGGVVQPGRSLRLSCAASGRTESWYRMGWFRQAPGKGREVVARISGDTNIKYYAGSVKGRFTISRDNSKNTLYLQMSSLRAEDTAVYYCAADRTGATWDYWGQGTLVTVSS
notes: as for B1
As for B3, in assay [2], the “EC50 of NK cell activation” value is 7.39 nM and the “Top mean fluorescence intensity” value worked out at 14.4. For the same molecule, in assay [3], the EC50 turned out to be 0.072 nM and the “Top MFI” value worked out at 4060. In assay [5], the EC50 stood at 0.153 nM and the “Top MFI” value was 6820.

B4: H3-PA45 humanized antibody (antibody, V domains shown)
VH: EVQLVESGGGLVQPGGSLRLSCAASGRTFSRLPMAWFRQAPGKGREFVAAISWSGGSTYYADSMKGRFTISRDNSKNTAYLQMNSLRAEDTAVYYCAAVGDSAPYSATIVYTDARAYAYWGQGTLVTVSS
notes: as for B1
For the molecule B4, in assay [2], the “EC50 of NK cell activation” value worked out at 0.58 nM and the “Top mean fluorescence intensity” value came to 34. In addition, in assay [3], a half-maximal effect (EC50) was put at 1.52 nM and the “Top MFI” value was 3330. Also, in assay [5], the EC50 is 0.188 nM and the “Top MFI” value is 5720.

B5: H1-PA45 humanized antibody (antibody, human IgG1, V domains shown)
VH: EVQLVESGGGLVQPGGSLRLSCAASGRTFSRLPMAWVRQAPGKGLEWVSAISWSGGSTYYADSMKGRFTISRDNSKNTLYLQMNSLRAEDTAVYYCAAVGDSAPYSATIVYTDARAYAYWGQGTLVTVSS
notes: also called hPA45; not shown: constant region of human IgG1
With B5, in assay [2], the “EC50 of NK cell activation” value amounted to 7.39 nM and the “Top mean fluorescence intensity” value was determined as 30.8. In assay [3], the EC50 was determined as 11.1 nM and the “Top MFI” value is 3120. In assay [5], the midpoint of the response, the EC50, lay at 0.543 nM and the “Top MFI” value was found to be 5090.

B6: H3-PA31 humanized antibody (antibody, human IgG1, V domains shown)
VH: EVQLVESGGGLVQPGGSLRLSCAVSGRTFSRLPMGWFRQAPGKGREFVAAISWSSSTTYYADSVKGRFTISRDNSKNTAYLQMNSLRAEDTAVYYCAAVGGSLDYSATVVYTAARAYADWGQGTLVTVSS
notes: as for B1
B6: in assay [2], the “EC50 of NK cell activation” value is 0.75 nM and the “Top mean fluorescence intensity” value was determined as 31.6. Further, in assay [3], a half-maximal effect (EC50) was put at 1.16 nM and the “Top MFI” value came out at 3210. Besides, in assay [5], the concentration giving a half-maximal response (EC50) came out at 0.148 nM and the “Top MFI” value was determined as 5980.

B7: H4-PA31 humanized antibody (antibody, human IgG1, V domains shown)
VH: EVQLVESGGGLVQPGGSLRLSCAVSGRTFSRLPMGWFRQAPGKDREFVAAISWSSSTTYYADSVKGRFTISRDNSKNTAYLQMNSLRAEDTAVYYCAAVGGSLDYSATVVYTAARAYADWGQGTLVTVSS
notes: as for B1
On to B7, for which, in assay [2], the “EC50 of NK cell activation” value was found to be 0.38 nM and the “Top mean fluorescence intensity” value is 34.1. Further, in assay [3], a half-maximal effect (EC50) was put at 1.3 nM and the “Top MFI” value turned out to be 3340. In assay [4], this molecule had a Kd of 5.89 nM, a koff of 0.00103 s⁻¹ and an association rate constant (kon) of 175000 M⁻¹ s⁻¹. In assay [5], it took 0.162 nM to reach a half-maximal effect (EC50) and the “Top MFI” value was found to be 5950.

B8: H4-PA45 humanized antibody (antibody, V domains shown)
VH: EVQLVESGGGLVQPGGSLRLSCAASGRTFSRLPMAWFRQAPGKDREFVAAISWSGGSTYYADSMKGRFTISRDNSKNTAYLQMNSLRAEDTAVYYCAAVGDSAPYSATIVYTDARAYAYWGQGTLVTVSS
notes: as for B1
For B8, in assay [2], the “EC50 of NK cell activation” value was 0.4 nM and the “Top mean fluorescence intensity” value was 37.6. In addition, in assay [3], a half-maximal effect (EC50) was put at 1.53 nM and the “Top MFI” value came out at 3400. For the same molecule, in assay [4], the Kd was 21.9 nM, the koff was 0.00204 s⁻¹ and the kon is 93000 M⁻¹ s⁻¹. For the same molecule, in assay [5], the midpoint of the response, the EC50, lay at 0.205 nM and the “Top MFI” value turned out to be 5760.

B9: H1-PC11 humanized antibody (antibody, human IgG1, V domains shown)
VH: EVQLVESGGGLVQPGGSLRLSCAASPYSANSFSMAWFRQAPGKGLEGVACIQAESGSTNVAPSVKGRFTISQDNSKNTLYLQMNSLRAEDTAVYYCAAFKRNVGGCELRPEHWRFWGQGTLVTVSS
notes: as for B1
In assay [1], B9 showed a Kd of 115 nM, an off-rate (koff) of 0.00589 s⁻¹ and a kon of 51300 M⁻¹ s⁻¹. For the same molecule, in assay [2], the “EC50 of NK cell activation” value stood at 0.85 nM and the “Top mean fluorescence intensity” value worked out at 21. Also, in assay [3], the EC50 was determined as 0.345 nM and the “Top MFI” value was determined as 3260. In assay [4], this molecule gave a Kd of 6.05 nM, an off-rate constant (koff) of 0.000307 s⁻¹ and an association rate constant (kon) of 50800 M⁻¹ s⁻¹. Besides, in assay [5], the midpoint of the response, the EC50, lay at 0.389 nM and the “Top MFI” value came to 6710.

B10: H2-PC11 humanized antibody (antibody, human IgG1, V domains shown)
VH: EVQLVESGGGLVQPGGSLRLSCAPSPYSANSFSMAWFRQAPGKGLEGIACIQAESGSTNVAPSVKGRFTISQDNSKNTLYLQMNSLRAEDTAVYYCAAFKRNVGGCELRPEHWRFWGQGTLVTVSS
notes: as for B1
Turning to B10, in assay [2], the “EC50 of NK cell activation” value is 0.87 nM and the “Top mean fluorescence intensity” value stood at 18.8. Besides, in assay [3], the EC50 came out at 0.301 nM and the “Top MFI” value came out at 3540. Besides, in assay [4], binding was put at a Kd of 2.05 nM, the koff came to 0.000126 s⁻¹ and the kon stood at 61300 M⁻¹ s⁻¹. For the same molecule, in assay [5], the EC50 amounted to 0.363 nM and the “Top MFI” value turned out to be 6940.

B11: H3-PC11 humanized antibody (antibody, human IgG1, V domains shown)
VH: EVQLVESGGGLVQPGGSLRLSCAASPYSANSFSMAWFRQAPGKGREGVACIQAESGSTNVAPSVKGRFTISQDNSKNTLYLQMNSLRAEDTAVYYCAAFKRNVGGCELRPEHWRFWGQGTLVTVSS
notes: as for B1
Take B11: in assay [2], the “EC50 of NK cell activation” value was determined as 1.21 nM and the “Top mean fluorescence intensity” value is 19.6. Also, in assay [3], the EC50 was 0.297 nM and the “Top MFI” value is 3280. In assay [4], this molecule gave a Kd of 1.14 nM, a koff of 7.75e-05 s⁻¹ and a kon of 67800 M⁻¹ s⁻¹. Also, in assay [5], the EC50 is 0.328 nM and the “Top MFI” value turned out to be 6830.

As a reminder, the Kd is the free concentration of one partner at which half of the binding sites on the other are occupied at equilibrium, for simple one-to-one binding. A word on the koff: it is a measure of how fast the partners let go of each other. Usually kon stands for a measure of how fast the partners come together. For orientation: EC50 means the concentration that produces a half-maximal response.
